Earlier results, collected in publication PMC3193156.

Legend:
Cys117 = settings: Resting state (free reduced enzyme)
His103 = settings: Resting state (free reduced enzyme)
Cys95 = Cys95 (UniProt position 95, GQSRFCIFSSS); experiment: NMR
His80 = His80 (UniProt position 80, GNGLGHEFLND); experiment: NMR

Row | Substance | pKa (Cys117) | pKa (His103) | pKa (Cys95) | pKa (His80)
1 | Methionine sulfoxide reductase B (MsrB domain of PilB) (Neisseria meningitidis) | 9.3 | 6.6 |  | 
2 | Methionine-R-sulfoxide reductase B1 (MsrB1, selenoprotein R), Cys95 form (Mus musculus; U95C) |  |  | 6.0 | 5.7
